Assay results published in patent US20190211092A1 (NATIONAL UNIVERSITY CORPORATION TOKYO MEDICAL AND DENTAL …, published 2019).

Target: T1, GST-fusion HMGB1 protein (Wister rat HMGB1, full length, expressed from pGEX-3X) (rat (Wister), UniProt P63159 2-215)
T1 construct: mature; GST served as the negative control protein in screening; also called HMGB1 solid-phase plate; not shown: glutathione S-transferase (GST) tag of the pGEX-3X vector
T1 sequence (looked up): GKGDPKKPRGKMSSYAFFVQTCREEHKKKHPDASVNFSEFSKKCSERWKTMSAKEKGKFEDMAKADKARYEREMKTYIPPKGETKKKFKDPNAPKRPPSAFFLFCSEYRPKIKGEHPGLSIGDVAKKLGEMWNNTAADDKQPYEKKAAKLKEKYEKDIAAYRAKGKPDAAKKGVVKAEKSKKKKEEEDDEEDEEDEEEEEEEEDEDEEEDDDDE
Assay: ELISA on GST-fusion HMGB1 and SPR (FIGS. 1A and 1B)
Description: Then, to select anti-HMGB1 monoclonal antibodies, the ELISA method was carried out as described below. First, part of the culture solution after 2 weeks was sampled and added in […] to a microplate in which 250 ng/well of the HMGB1 protein or the negative control protein (GST) was immobilized. Subsequently, reaction was carried out at room temperature for 1 hour, followed by washing with PBS three times. A secondary antibody (HRP-labeled anti-mouse IgG, manufactured by MEDICAL & BIOLOGICAL LABORATORIES CO., LTD., code number 330) was diluted in accordance with the package insert and added in 50 μL/well, which was reacted for one hour at room temperature, followed by washing with PBS three times after the reaction. Thereafter, a TMB reagent (MOSS, Inc., Chicago, Ill., USA, USA) was added in 50 μL/well, followed by enzyme chromogenic reaction for 15 minutes. Subsequently, after the enzyme reaction was stopped with 1.5 N phosphoric acid, the absorbance was measured with a plate reader with 450 nm (reference 630 nm) to select clones that reacts specifically with the HMGB1 solid-phase plate, establishing anti-HMGB1 monoclonal antibodies.

B1: anti-HMGB1 monoclonal antibody (2C8C) (antibody, V domains shown)
VH: QVQLQQSGPELVKPGASVKLSCKASGYTFTDYTIHWVKQSPGQGLEWIGWIYPGSGNTKYNDKFKGKATMTADKSSSTAYMQLSSLTSEDSAVYFCARGFAYWGQGTLVTVSA
VL: DIVLTQSPATLSVTPGDSVSLSCRASQSISNNLHWYQQKSHESPRLLIKYASQSISGIPSRFSGSGSGTDFTLSINSVETEDFGMYFCQQTNSWPLTFGAGTKLELK
notes: also called 2C8C antibody; clone 2C8C
binding result: binds
